The supplement of paper PMC6755084

B1: minF1; a variant is named by its letters at N, in order (parent)
chain: GAGACCGCAACTGAAAAGTTGTTNNNNAANNNNGGNTNNATTTCTGCACGTAGAAGCAAAAGGC

Variants of: B1
Test: fraction ligated after 30 min (ligated reads / total reads); higher = more ligase activity
Conditions: with F1*subA RNA substrate (template-directed ligation), 42 °C
Protocol: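 Chip-synthesised pool of minF1 ligase ribozyme variants (single and double substitutions, single to quadruple deletions, bulge and P2 designed variants) was transcribed with T7 and reacted as a pool with excess substrate F1*subA for 30 min at 42 C in 50 mM EPPS pH 8.5, 25 mM MgCl2. Ligated and unligated RNAs were separated by PAGE, barcoded by RT and deep sequenced; fraction ligated = ligated reads / total reads, relative activity = FL / FL of wild-type minF1 (0.76); sequencing FL correlated with PAGE (R2 = 0.98). Sequences are the DNA template of the ribozyme.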
Variant GAGACCGCAACTGAAAAGTTGTTATCAGAAAGAGGTTGAATTTCTGCACGTAGAAGCAAAAGGC [ATCAAAGATGA A28G] has a fraction ligated of 0.00211. For GAGACCGCAACTGAAAAGTTGTTATAGATGGATGGGTTGATTTCTGCACGTAGAAGCAAAAGGC [ATAGGGATGTG A29T], the fraction ligated was 0.012. For GAGACCGCAACTGAAAAGTTGTTATAGAATGGATGGGTTATTTCTGCACGTAGAAGCAAAAGGC [ATAGTGGAGTT G34T T37G], the fraction ligated was 0.00164. GAGACCGCAACTGAAAAGTTGTTATAGAAATGGAGGTTGATTTCTGCACGTAGAAGCAAAAGGC [ATAGATGGGTG G34A] showed a fraction ligated of 0.00708. With GAGACCGCAACTGAAAAGTTGTTATAGAAATGGTGGTTGATTTCTGCACGTAGAAGCAAAAGGC [ATAGATGGGTG G34T] the fraction ligated was 0.00668. Work on GAGACCGCAACTGAAAAGTTGTTATAGAAATGGATGGTTGTTTCTGCACGTAGAAGCAAAAGGC [ATAGATGGGTT G34A G35T T37G A40G] yielded a fraction ligated of 0.00103. GAGACCGCAACTGAAAAGTTGTTATCAGAAAGGAGGGTTGTTTCTGCACGTAGAAGCAAAAGGC [ATCAAAGGGTT A28G G34A T37G A40G] showed a fraction ligated of 0.000889. With GAGACCGCAACTGAAAAGTTGTTATAGAATGGAGGGTTGATTTCTGCACGTAGAAGCAAAAGGC [ATAGTGGAGTG] the fraction ligated was 0.00518. With GAGACCGCAACTGAAAAGTTGTTATAGAATGGAGGGTTAATTTCTGCACGTAGAAGCAAAAGGC [ATAGTGGAGTA] the fraction ligated was 0.00346. Work on GAGACCGCAACTGAAAAGTTGTTATAGAAGGTGGGTTGAATTTCTGCACGTAGAAGCAAAAGGC [ATAGGGTGTGA] yielded a fraction ligated of 0.00288. GAGACCGCAACTGAAAAGTTGTTATCAGAAAGGGGGTTAATTTCTGCACGTAGAAGCAAAAGGC [ATCAAAGGGTA A28G] gave a fraction ligated of 0.00291. Work on GAGACCGCAACTGAAAAGTTGTTATAGAAATGGAGGGTTATTTCTGCACGTAGAAGCAAAAGGC [ATAGATGGGTT G34A T37G] yielded a fraction ligated of 0.000508. Work on GAGACCGCAACTGAAAAGTTGTTATCAGAAATATGGTTAATTTCTGCACGTAGAAGCAAAAGGC [ATCAAATAGTA A28G G34T] yielded a fraction ligated of 0.00133. Work on GAGACCGCAACTGAAAAGTTGTTATCAGAAAGATGGGTTATTTCTGCACGTAGAAGCAAAAGGC [ATCAAAGAGTT A28G G34T T37G] yielded a fraction ligated of 0.00139. Variant GAGACCGCAACTGAAAAGTTGTTATAGAAATGGAGGGTTGTTTCTGCACGTAGAAGCAAAAGGC [ATAGATGGGTT G34A T37G A40G] has a fraction ligated of 0. With GAGACCGCAACTGAAAAGTTGTTATAGAATGAGGGTTGAATTTCTGCACGTAGAAGCAAAAGGC [ATAGTGAGTGA] the fraction ligated was 0.00282. For GAGACCGCAACTGAAAAGTTGTTATAGAAGGATGGGTTGATTTCTGCACGTAGAAGCAAAAGGC [ATAGGGATGTG], the fraction ligated was 0.00618. GAGACCGCAACTGAAAAGTTGTTATAGAAGGATGGGTTAATTTCTGCACGTAGAAGCAAAAGGC [ATAGGGATGTA] gave a fraction ligated of 0.0024. Variant GAGACCGCAACTGAAAAGTTGTTATAGAATGGTGGTTGAATTTCTGCACGTAGAAGCAAAAGGC [ATAGTGGTTGA] has a fraction ligated of 0.0023. For GAGACCGCAACTGAAAAGTTGTTATAGAATGGATGGTTGATTTCTGCACGTAGAAGCAAAAGGC [ATAGTGGAGTG G34T], the fraction ligated was 0.0109. With GAGACCGCAACTGAAAAGTTGTTATCAGAAAGTGGGTTGATTTCTGCACGTAGAAGCAAAAGGC [ATCAAAGTGTG A28G] the fraction ligated was 0.00272. With GAGACCGCAACTGAAAAGTTGTTATAGAAATGTGGTTGAATTTCTGCACGTAGAAGCAAAAGGC [ATAGATGTTGA] the fraction ligated was 0.00174. In the case of GAGACCGCAACTGAAAAGTTGTTATCAGAAAGATGGTTGATTTCTGCACGTAGAAGCAAAAGGC [ATCAAAGAGTG A28G G34T], the fraction ligated is reported as 0.00562. In the case of GAGACCGCAACTGAAAAGTTGTTATAGATGGATGGGTTAATTTCTGCACGTAGAAGCAAAAGGC [ATAGGGATGTA A29T], the fraction ligated is reported as 0.00166. GAGACCGCAACTGAAAAGTTGTTATCAGAAAAGGGTTGAATTTCTGCACGTAGAAGCAAAAGGC [ATCAAAAGTGA A28G] showed a fraction ligated of 0.00266. For GAGACCGCAACTGAAAAGTTGTTATAGATGGATGGTTGAATTTCTGCACGTAGAAGCAAAAGGC [ATAGGGATTGA A29T], the fraction ligated was 0.0025. For GAGACCGCAACTGAAAAGTTGTTATAGATGGTGGGTTGAATTTCTGCACGTAGAAGCAAAAGGC [ATAGGGTGTGA A29T], the fraction ligated was 0.00231. GAGACCGCAACTGAAAAGTTGTTATCAGAAAGATGGTTAATTTCTGCACGTAGAAGCAAAAGGC [ATCAAAGAGTA A28G G34T] gave a fraction ligated of 0.00276. Variant GAGACCGCAACTGAAAAGTTGTTATCAGAAAGGTGGGTTATTTCTGCACGTAGAAGCAAAAGGC [ATCAAAGGGTT A28G G34T T37G] has a fraction ligated of 0.00171. GAGACCGCAACTGAAAAGTTGTTATAGTGGATGGGTTGAATTTCTGCACGTAGAAGCAAAAGGC [ATAGGATGTGA A28T A29G] was tested, and the fraction ligated was 0.0105. GAGACCGCAACTGAAAAGTTGTTATCAGAAAGGGGGTTGATTTCTGCACGTAGAAGCAAAAGGC [ATCAAAGGGTG A28G] gave a fraction ligated of 0.0051. For GAGACCGCAACTGAAAAGTTGTTATCAGAAAGGATGGTTATTTCTGCACGTAGAAGCAAAAGGC [ATCAAAGGGTT A28G G34A G35T T37G], the fraction ligated was 0.00185. GAGACCGCAACTGAAAAGTTGTTATAGAAGATGGGTTGAATTTCTGCACGTAGAAGCAAAAGGC [ATAGGATGTGA] was tested, and the fraction ligated was 0.00396. For GAGACCGCAACTGAAAAGTTGTTATCAGAAATAGGGTTGATTTCTGCACGTAGAAGCAAAAGGC [ATCAAATAGTG A28G], the fraction ligated was 0.00674. Variant GAGACCGCAACTGAAAAGTTGTTATCAGAAAGGGGTTGAATTTCTGCACGTAGAAGCAAAAGGC [ATCAAAGGTGA A28G] has a fraction ligated of 0.00196. GAGACCGCAACTGAAAAGTTGTTATCAGAAAGATGGGTTGTTTCTGCACGTAGAAGCAAAAGGC [ATCAAAGAGTT A28G G34T T37G A40G] gave a fraction ligated of 0.00143. With GAGACCGCAACTGAAAAGTTGTTATAGAAATGGGGGTTGATTTCTGCACGTAGAAGCAAAAGGC [ATAGATGGGTG] the fraction ligated was 0.00885. For GAGACCGCAACTGAAAAGTTGTTATAGAAATGGGGGTTAATTTCTGCACGTAGAAGCAAAAGGC [ATAGATGGGTA], the fraction ligated was 0.00171. Variant GAGACCGCAACTGAAAAGTTGTTATAGAAATGATGGGTTGTTTCTGCACGTAGAAGCAAAAGGC [ATAGATGAGTT G34T T37G A40G] has a fraction ligated of 0.00153. GAGACCGCAACTGAAAAGTTGTTATAGAAATGATGGTTAATTTCTGCACGTAGAAGCAAAAGGC [ATAGATGAGTA G34T] was tested, and the fraction ligated was 0.0034. GAGACCGCAACTGAAAAGTTGTTATAGAATGATGGTTGAATTTCTGCACGTAGAAGCAAAAGGC [ATAGTGATTGA] was tested, and the fraction ligated was 0.00291. GAGACCGCAACTGAAAAGTTGTTATAGAAGGAGGGTTGAATTTCTGCACGTAGAAGCAAAAGGC [ATAGGGAGTGA] was tested, and the fraction ligated was 0.00238.
